According to PMC10639050, “ZNF432 stimulates PARylation and inhibits DNA resection to balance PARPi sensitivity and resistance”:

Experiments:
[1] = target: ZNF432 KRAB domain (Homo sapiens, UniProt O94892 1-205); test: EMSA; negligible binding; 1-6 nM protein, no fixation; 25 mM MOPS pH 7.0, 60 mM KCl, 0.2% Tween, 2 mM DTT, CaCl2 (40 nM as printed with glutaraldehyde fixation; 1 mM without fixation for Kd), 37 C 30 min; 8% TBE acr; settings: protein: recombinant; tags: His (GST removed with PreScission); label: 32P (gamma-32P); single strand
[2] = target: ZNF432 full-length (Homo sapiens, UniProt O94892 1-652); test: EMSA; no fixation, 1 mM CaCl2; 100 nM DNA stated, protein 1-6 nM; 25 mM MOPS pH 7.0, 60 mM KCl, 0.2% Tween, 2 mM DTT, CaCl2 (40 nM as printed with glutaraldehyde fixation; 1 mM without fixation for Kd), 37 C 30 min; 8% TBE acr; settings: protein: recombinant; tags: C-terminal 10xHis (GST removed with PreScission); label: 32P (gamma-32P); single strand
ZNF432 full-length, sequence (O94892 whole entry): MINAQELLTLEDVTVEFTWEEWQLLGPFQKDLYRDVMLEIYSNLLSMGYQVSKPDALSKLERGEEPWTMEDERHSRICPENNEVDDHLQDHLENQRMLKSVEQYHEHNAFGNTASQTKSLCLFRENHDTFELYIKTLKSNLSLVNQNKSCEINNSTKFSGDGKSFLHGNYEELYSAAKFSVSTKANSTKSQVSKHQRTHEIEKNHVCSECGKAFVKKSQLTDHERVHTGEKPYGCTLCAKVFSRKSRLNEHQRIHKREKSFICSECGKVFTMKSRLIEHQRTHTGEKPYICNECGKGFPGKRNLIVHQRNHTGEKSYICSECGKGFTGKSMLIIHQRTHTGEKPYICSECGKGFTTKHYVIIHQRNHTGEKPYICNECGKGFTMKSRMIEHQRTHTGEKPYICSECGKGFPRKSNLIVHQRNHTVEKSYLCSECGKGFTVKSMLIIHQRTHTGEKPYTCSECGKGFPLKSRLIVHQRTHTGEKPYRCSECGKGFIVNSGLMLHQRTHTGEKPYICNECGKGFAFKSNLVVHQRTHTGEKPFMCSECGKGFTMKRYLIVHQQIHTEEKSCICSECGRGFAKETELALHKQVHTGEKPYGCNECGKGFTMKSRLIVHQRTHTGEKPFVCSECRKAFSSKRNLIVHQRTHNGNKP

ZNF432 KRAB domain, sequence (O94892 1-205): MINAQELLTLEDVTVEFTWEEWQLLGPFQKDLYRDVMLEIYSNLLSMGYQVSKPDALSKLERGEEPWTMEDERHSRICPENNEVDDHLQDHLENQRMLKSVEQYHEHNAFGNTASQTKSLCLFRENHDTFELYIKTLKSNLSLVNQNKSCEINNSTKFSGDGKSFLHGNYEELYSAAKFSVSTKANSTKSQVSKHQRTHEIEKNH

B1: Single-stranded DNA (ssDNA)
DNA: GGGCGAATTGGGCCCGACGTCGCATGCTCCTCTAGACTCGAGGAATTCGGTACCCCGGGTTCGAAATCGATAAGCTTACAGTCTCCATTTAAAGGACAAG
binding result [1]: no binding | Kd [2]: 5.41 nM
